Assay results: PMC8352597
Blank lines part the entries; values can stand above or below the substance they belong to.

Tests used:
[1] = biological target: microtubules polymerised from porcine brain tubulin (porcine) (UniProt P02550); assay: TIRF microscopy (sfGFP fluorescence intensity on immobilised microtubules); as a3, but DCLK1 pre-incubated with 2 mM ATP for 30 min at 25°C
[2] = biological target: microtubules polymerised from porcine brain tubulin (porcine) (UniProt P02550); assay: co-sedimentation; as a5, but DCLK1 pre-incubated with 2 mM ATP at 25°C for 30 min
[3] = biological target: microtubules polymerised from porcine brain tubulin (porcine) (UniProt P02550); assay: co-sedimentation; 500 nM sfGFP-DCLK1 with 2 μM taxol-stabilized microtubules, 25°C 20 min, pelleted at 90,000 xg; 50 mM Tris pH 8, 150 mM K acetate, 2 mM Mg acetate, 1 mM EGTA, 10% glycerol; DCLK1 pre-incubated 30 min without ATP
[4] = biological target: microtubules polymerised from porcine brain tubulin (porcine) (UniProt P02550); assay: TIRF microscopy (sfGFP fluorescence intensity on immobilised microtubules); non-stabilized GDP microtubules grown from GMPCPP seeds fixed to the coverslip; 10 nM DCLK1 with 10 uM tubulin and 2 mM GTP in BRB80-based assay buffer; DCLK1 pre-incubated 30 min at 25°C without ATP
[5] = biological target: microtubules polymerised from porcine brain tubulin (porcine) (UniProt P02550); assay: TIRF microscopy (sfGFP fluorescence intensity on immobilised microtubules); taxol-stabilized microtubules immobilised on the glass surface, sfGFP-DCLK1 flowed in; no ATP; 60 mM HEPES pH 7.4, 50 mM K acetate, 2 mM Mg acetate, 1 mM EGTA, 10% glycerol, biotin-BSA, Pluronic, κ-casein, 10 μM …; KD from a one-site-binding hyperbola fit of intensity against concentration
[6] = biological target: microtubules polymerised from porcine brain tubulin (porcine) (UniProt P02550); assay: TIRF microscopy (sfGFP fluorescence intensity on immobilised microtubules); as a1, but DCLK1 incubated with 2 mM ATP for 30 min at 25°C before it was flowed onto immobilised taxol-stabilized microtubules; KD from a one-site-binding hyperbola fit

microtubules polymerised from porcine brain tubulin (porcine), sequence (P02550 whole entry, chain 1 of 2): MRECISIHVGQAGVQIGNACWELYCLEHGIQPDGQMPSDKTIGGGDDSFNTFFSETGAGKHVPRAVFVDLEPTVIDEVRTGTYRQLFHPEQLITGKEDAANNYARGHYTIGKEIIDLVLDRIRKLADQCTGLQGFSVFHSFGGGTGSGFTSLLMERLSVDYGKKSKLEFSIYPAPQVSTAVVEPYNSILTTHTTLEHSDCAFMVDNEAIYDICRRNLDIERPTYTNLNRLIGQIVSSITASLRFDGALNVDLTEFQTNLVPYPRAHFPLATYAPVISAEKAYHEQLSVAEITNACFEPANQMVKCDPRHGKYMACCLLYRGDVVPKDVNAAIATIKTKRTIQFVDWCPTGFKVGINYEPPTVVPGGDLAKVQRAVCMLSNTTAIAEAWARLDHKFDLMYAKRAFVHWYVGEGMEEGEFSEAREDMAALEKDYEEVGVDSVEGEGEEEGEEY
microtubules polymerised from porcine brain tubulin (porcine), sequence (P02554 whole entry, chain 2 of 2, further chain): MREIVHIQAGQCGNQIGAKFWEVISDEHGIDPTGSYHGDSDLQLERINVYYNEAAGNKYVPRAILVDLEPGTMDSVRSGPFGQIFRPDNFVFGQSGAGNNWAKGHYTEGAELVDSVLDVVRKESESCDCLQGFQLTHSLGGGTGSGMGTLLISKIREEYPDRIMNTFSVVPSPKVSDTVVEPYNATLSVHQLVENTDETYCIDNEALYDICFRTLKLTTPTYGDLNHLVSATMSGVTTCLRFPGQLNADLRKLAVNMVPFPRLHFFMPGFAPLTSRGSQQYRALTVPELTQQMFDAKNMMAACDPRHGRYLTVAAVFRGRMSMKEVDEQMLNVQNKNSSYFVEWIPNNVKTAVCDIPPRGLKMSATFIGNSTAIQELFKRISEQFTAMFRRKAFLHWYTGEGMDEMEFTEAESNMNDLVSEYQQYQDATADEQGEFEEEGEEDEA

Substance: sfGFP-DCLK1-D511N (kinase-dead, mouse, full length) (natural protein)
microtubule-bound fluorescence intensity at 3 nM [5]: 9070
microtubule-bound fluorescence intensity at 25 nM [5]: 19700

Substance: sfGFP-DCLK1-T688A (mouse, full length), co-expressed with lambda phosphatase, incubated 30 min with 2 mM ATP (natural protein)
percent of DCLK1 that co-pelleted with microtubules [2]: 7.9%

Substance: sfGFP-DCLK1-T688A (mouse, full length), co-expressed with lambda phosphatase, not incubated with ATP (natural protein)
percent of DCLK1 that co-pelleted with microtubules [3]: 98.9%

Substance: sfGFP-DCLK1-ΔC (mouse, aa 1-648), co-expressed with lambda phosphatase, not incubated with ATP (domain or fragment)
percent of DCLK1 that co-pelleted with microtubules [3]: 96.3%
microtubule-bound fluorescence intensity at 5 nM [5]: 12900
microtubule-bound fluorescence intensity at 20 nM [5]: 23600
microtubule-bound fluorescence intensity at 10 nM [4]: 12100

Substance: sfGFP-DCLK1-ΔC (mouse, aa 1-648), treated with lambda phosphatase after purification (domain or fragment)
microtubule-bound fluorescence intensity at 3 nM [5]: 12000
microtubule-bound fluorescence intensity at 25 nM [5]: 21200

Substance: sfGFP-DCLK1-ΔC DC1-4A (S77, S83, S96, T143 to alanine), co-expressed with lambda phosphatase, incubated with ATP (domain or fragment)
microtubule-bound fluorescence intensity at 5 nM [6]: 4040
microtubule-bound fluorescence intensity at 20 nM [6]: 12600

Substance: sfGFP-DCLK1-ΔC DC1-4A (S77, S83, S96, T143 to alanine), co-expressed with lambda phosphatase, not incubated with ATP (domain or fragment)
microtubule-bound fluorescence intensity at 5 nM [5]: 12200
microtubule-bound fluorescence intensity at 20 nM [5]: 22300

Substance: sfGFP-DCLK1-ΔC DC2-4A (T189, S193, T218, S228 to alanine), co-expressed with lambda phosphatase, incubated with ATP (domain or fragment)
microtubule-bound fluorescence intensity at 5 nM [6]: 2480
microtubule-bound fluorescence intensity at 20 nM [6]: 3500

Substance: sfGFP-DCLK1-ΔC DC2-4A (T189, S193, T218, S228 to alanine), co-expressed with lambda phosphatase, not incubated with ATP (domain or fragment)
microtubule-bound fluorescence intensity at 5 nM [5]: 8550
microtubule-bound fluorescence intensity at 20 nM [5]: 19900

Other lines, results leading:

microtubule-bound fluorescence intensity at 10 nM [1]: 12500
percent of DCLK1 that co-pelleted with microtubules [2]: 86.2%
Substance: sfGFP-DCLK1 wild type (mouse, aa 1-740), co-expressed with lambda phosphatase, autophosphorylated by 30 min with 2 mM ATP (natural protein)

percent of DCLK1 that co-pelleted with microtubules [3]: 99.3%
microtubule-bound fluorescence intensity at 10 nM [4]: 15000
Substance: sfGFP-DCLK1 wild type (mouse, aa 1-740), co-expressed with lambda phosphatase, not incubated with ATP (natural protein)

microtubule-bound fluorescence intensity at 3 nM [5]: 2750
microtubule-bound fluorescence intensity at 25 nM [5]: 16100
Substance: sfGFP-DCLK1 wild type (mouse, aa 1-740), expressed in bacteria under standard conditions (natural protein)

microtubule-bound fluorescence intensity at 3 nM [5]: 15100
microtubule-bound fluorescence intensity at 25 nM [5]: 18200
Substance: sfGFP-DCLK1 wild type (mouse, aa 1-740), treated with lambda phosphatase after purification (natural protein)

microtubule-bound fluorescence intensity at 10 nM [1]: 1580
microtubule-bound fluorescence intensity at 5 nM [6]: 988
microtubule-bound fluorescence intensity at 20 nM [6]: 1580
percent of DCLK1 that co-pelleted with microtubules [2]: 6.9%
Substance: sfGFP-DCLK1-ΔC (mouse, aa 1-648), co-expressed with lambda phosphatase, hyperphosphorylated by 30 min with 2 mM ATP (domain or fragment)
